The supplement of paper PMC7125110
± gives the standard error. This sample holds only a part of the variants without activity.

B1: glmS ribozyme (parent)
chain: AUAAAAGCGCCAGAACUACAGAAAUGUAGUUGACGAGGAGGAGGUUUAUCGAAUUUUCGGCGGAUGCCUCCAAA

Variants of: B1
Test: self-cleavage kobs at 2500 uM GlcN6P; higher = faster cleavage; RNA array
Details: with glucosamine-6-phosphate
In short: (§1)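 E. coli RNA polymerase transcribed barcoded ribozyme variants in situ on sequenced MiSeq chips, which were tracked via a hybridised Cy3 probe at 37 °C. Tiles were imaged over ~14 h after glucosamine-6-phosphate (40 μM to 10 mM) in HEPES/KCl/Mg(OAc)2 buffer was flowed in. Normalised per-tile medians were fit to one- or two-exponential decays for kobs, and kcat and KM came from weighted Michaelis–Menten fits.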

Variant	self-cleavage kobs at 2500 uM GlcN6P
A12G U31A U45A	0.000216 ± 6.4e-05 s⁻¹
G7A G51U U54G	< 1e-05 s⁻¹
U47G G62A C70G	0.000139 ± 3.4e-05 s⁻¹
A12U U54A G60C U65A	< 1e-05 s⁻¹
G13U A36C A42G C58U	< 1e-05 s⁻¹
G32C A48U C68U	< 1e-05 s⁻¹
C11A G37A G38C	< 1e-05 s⁻¹
G9U G35U G37C G51C	< 1e-05 s⁻¹
C8G A33C C34U U46G U65C	< 1e-05 s⁻¹
C16U U57A C70G	5.1e-05 ± 2.1e-05 s⁻¹
A6C A39C C68U	< 1e-05 s⁻¹
A33G U46G C70U	< 1e-05 s⁻¹
G41A U55A U57C A64U	< 1e-05 s⁻¹
C8A G13C U65C	< 1e-05 s⁻¹
G9C C10A G32A	< 1e-05 s⁻¹
G9C G40U G51U A52U	< 1e-05 s⁻¹
C8G C10G C70G	< 1e-05 s⁻¹
G38C G59C C71G	< 1e-05 s⁻¹
G32C U54G A64U	< 1e-05 s⁻¹
C50G U55C	3.57e-05 ± 1.6e-05 s⁻¹
A42C A53C U55C	< 1e-05 s⁻¹

Variant	self-cleavage kobs at 2500 uM GlcN6P
U46A A64G G66A C71G	6.58e-05 ± 2.6e-05 s⁻¹
G29A A39U G40U	0.000177 ± 3.8e-05 s⁻¹
A12G U54A U55G	0.000119 ± 4.5e-05 s⁻¹
C11G A12C G38U C50U	< 1e-05 s⁻¹
A14G G41C A42U	3.8e-05 ± 1.4e-05 s⁻¹
A33U G35U G51C A64U	< 1e-05 s⁻¹
A39G U55G C71U	0.00336 ± 0.0015 s⁻¹
U45C U46A	4.42e-05 ± 1.9e-05 s⁻¹
A14U U45A C71G	0.000196 ± 5.4e-05 s⁻¹
G35C A42U A48C G63U	< 1e-05 s⁻¹
G29A G32C C34A A48G U57A	< 1e-05 s⁻¹
C10A A12U G37U G44U C50G A53G C68U	< 1e-05 s⁻¹
A15U G41U A42G U57C C70A	7.37e-05 ± 2.1e-05 s⁻¹
A14U G32C C67A	3.21e-05 ± 1.6e-05 s⁻¹
C50U U55A C68G	0.00018 ± 5.2e-05 s⁻¹
C8G A39C C58U	< 1e-05 s⁻¹
G35U A64G C71A	< 1e-05 s⁻¹
A6C A39G G51C	< 1e-05 s⁻¹
G7U G43C A53U A64G	< 1e-05 s⁻¹
A42C A48G C50G C61A C70U	< 1e-05 s⁻¹
C34U G38U C50G	0.000215 ± 5.7e-05 s⁻¹

Variant	self-cleavage kobs at 2500 uM GlcN6P
U54A A64G C70A	0.000536 ± 0.00018 s⁻¹
A6U A39G C70U	8.18e-05 ± 3.2e-05 s⁻¹
A12U G44U C67U	0.0167 ± 0.0049 s⁻¹
C10G C11G G13U U69C C70G	< 1e-05 s⁻¹
U55A U56A G66C	0.000134 ± 3.4e-05 s⁻¹
A52G C58G C61A A64U C67U	9.05e-05 ± 3.3e-05 s⁻¹
U31C G38U G66U	< 1e-05 s⁻¹
U30A A39G U69G	5.54e-05 ± 2.2e-05 s⁻¹
A14G U46C A48C C68U	8.06e-05 ± 3.1e-05 s⁻¹
G9A G29C G38C A64U	< 1e-05 s⁻¹
G29A G43C G60C	< 1e-05 s⁻¹
G29U A39U C67G	0.00033 ± 9.8e-05 s⁻¹
A15U U45A U57C	4.29e-05 ± 1.9e-05 s⁻¹
G7C A52U U54G C61U	< 1e-05 s⁻¹
G29C C34U G37U C70U	0.000116 ± 3.3e-05 s⁻¹
G35A G40A G66U	< 1e-05 s⁻¹
U31C G40U A48G C61U	< 1e-05 s⁻¹
G13U U47A C50U	< 1e-05 s⁻¹
A36U G44C U46G	< 1e-05 s⁻¹
A15C U45C C50G C68U	< 1e-05 s⁻¹
A39G G41U C68G	< 1e-05 s⁻¹

Variant	self-cleavage kobs at 2500 uM GlcN6P
U30G U46C C68U	8.16e-05 ± 1.7e-05 s⁻¹
A15C U57A C67G	5.01e-05 ± 2.4e-05 s⁻¹
A12U G32C G40U U45C	< 1e-05 s⁻¹
C10A G59C G66A C67A	< 1e-05 s⁻¹
A36U U54G U57A	< 1e-05 s⁻¹
G7U G13A G38U A52C A53C	< 1e-05 s⁻¹
U31A A36U G59A	< 1e-05 s⁻¹
G38A G40A G44U G60C	< 1e-05 s⁻¹
G7A U31A G44C	< 1e-05 s⁻¹
G38A G41U G43C A53U G59A A64C	< 1e-05 s⁻¹
A14G A52U A53G	0.000141 ± 3.3e-05 s⁻¹
G7A C8A G41U	< 1e-05 s⁻¹
C16A G40C A42U	< 1e-05 s⁻¹
A15G C50G	8.29e-05 ± 3.5e-05 s⁻¹
G7U G41A U47G C71G	< 1e-05 s⁻¹
A6C G29U G40A U49G C68U	< 1e-05 s⁻¹
A6C A12G A53U	< 1e-05 s⁻¹
G13A C34G G35A G41A U65A G66U	< 1e-05 s⁻¹

Variants of: B1
Test: self-cleavage kobs at 10000 uM GlcN6P; higher = faster cleavage; RNA array
Details: with glucosamine-6-phosphate
In short: as §1

Variant	self-cleavage kobs at 10000 uM GlcN6P
A33G U46G C70U	< 1e-05 s⁻¹
C8G C10G C70G	< 1e-05 s⁻¹
U45C U46A	5.25e-05 ± 1.3e-05 s⁻¹
A14U G32C C67A	8.69e-05 ± 2.8e-05 s⁻¹
G29C C34U G37U C70U	3.91e-05 ± 1.8e-05 s⁻¹
U30G U46C C68U	0.000214 ± 5.2e-05 s⁻¹
G7U G13A G38U A52C A53C	< 1e-05 s⁻¹
